Measurements: patent US20190233528A1 (published 2019)

T1: human CD70 expressed on parental (WT) Jurkat cells (human, UniProt P32970 1-193)
T1 sequence: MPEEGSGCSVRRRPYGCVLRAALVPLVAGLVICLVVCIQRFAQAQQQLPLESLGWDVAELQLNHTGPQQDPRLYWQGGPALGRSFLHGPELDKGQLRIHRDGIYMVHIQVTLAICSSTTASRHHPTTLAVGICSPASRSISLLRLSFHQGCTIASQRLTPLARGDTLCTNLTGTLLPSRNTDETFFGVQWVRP

T2: recombinant biotinylated human CD70 protein (human, UniProt P32970 39-193, biotinylated (site not stated))
T2 construct: also called recombinant biotinylated hCD70 protein
T2 sequence: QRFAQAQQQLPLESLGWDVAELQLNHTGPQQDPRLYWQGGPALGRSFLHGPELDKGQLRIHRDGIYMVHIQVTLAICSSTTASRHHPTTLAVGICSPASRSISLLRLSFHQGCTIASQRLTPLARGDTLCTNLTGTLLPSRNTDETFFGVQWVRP

T3: recombinant biotinylated human CD70 protein (human) (UniProt P32970)
T3 sequence (chain, biotinylated (site not stated)): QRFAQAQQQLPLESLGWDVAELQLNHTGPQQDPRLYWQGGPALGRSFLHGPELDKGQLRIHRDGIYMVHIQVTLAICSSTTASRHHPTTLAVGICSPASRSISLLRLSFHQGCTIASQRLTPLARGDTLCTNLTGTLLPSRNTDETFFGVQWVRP

T4: recombinant human CD70 (AviTag, polyhistidine tag and chicken tenascin trimerization domain fused to the … (chicken; human, UniProt P10039 110-139, limits assumed)
T4 construct: domain: trimerization domain; Expressed in Expi293, purified by IMAC and SEC; Copies 3 is inferred from the trimerization domain; not shown: AviTag; polyhistidine tag
T4 sequence: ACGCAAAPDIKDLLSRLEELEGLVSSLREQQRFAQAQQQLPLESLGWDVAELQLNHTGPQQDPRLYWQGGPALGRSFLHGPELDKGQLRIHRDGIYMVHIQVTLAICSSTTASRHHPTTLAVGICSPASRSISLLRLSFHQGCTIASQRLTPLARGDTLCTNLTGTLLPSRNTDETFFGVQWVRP


Tests used:
[1] = target: T1, human CD70 expressed on parental (WT) …; assay: cell-based or functional assay
[2] = target: T2, recombinant biotinylated human CD70 …; assay: flow cytometry: CAR-transduced Jurkat cells incubated with recombinant biotinylated human CD70, streptavidin-PE; percent of cells binding
Experimental: On Day 5, transduced cells were stained with human anti-CD69 antibody conjugated to PE-Cy7 and acquired on a flow cytometer to obtain percentage of CD69+ population for each CAR. […] Activation ratios (WT activation/KO activation) and protein binding were used to rank CARs.
Activation ratio and protein binding of hybridoma CARs were determined in the Jurkat screen and used for in vitro characterization of CARs. Activation ratio was determined by calculating the ratio of the percentage of CD69 expression on WT Jurkat cells transduced with CD70 CAR (WT) to that on CD70 knockout Jurkat cells transduced with CD70 CAR (KO). A higher activation ratio indicates target-dependent activation. […] Protein binding values indicate the percentage of CD3+ CAR T cells that bind to human CD70 protein.

[3] = target: T3, recombinant biotinylated human CD70 protein (human); assay: as above
[4] = target: T4, recombinant human CD70 (AviTag, …); assay: SPR (Biacore 8K, 37 C): CD70 captured via anti-AviTag antibody on C1 chip, scFv-Fc as analyte; 1:1 steady state affinity fit (SS KD)
Experimental: The antibody binding kinetics were determined by surface plasmon resonance (Biacore 8K, GE Healthcare Bio-Sciences, Pittsburgh Pa.) at 37° C. in HBS-T+ (0.01 M HEPES pH 7.4, 0.15 M NaCl, 0.05% v/v Tween20, 1 mg/mL BSA). Recombinant human CD70 diluted in HBS-T+ was captured on a C1 chip immobilized with an anti-AviTag™ antibody. Purified anti-CD70 scFv-Fc fusions were serially diluted into HBS-T+, injected at 30 uL/min for 2-4 min, dissociation monitored for 10 min then the surface regenerated with 75 mM phosphoric acid between injections. Buffer cycles were collected for each anti-CD70 scFv-Fc fusion for double-referencing purposes (double-referencing as described in Myszka, D. G. Improving biosensor analysis. J. Mol. Recognit. 12, 279-284 (1999)). Kinetic association rates (kₒₙ) and dissociation rates (koff) were obtained simultaneously by fitting the double-referenced sensorgrams globally to a 1:1 Langmuir with mass transport model using Biacore 8K Evaluation Software (GE Healthcare Bio-Sciences, Pittsburgh Pa.) then used to calculate an equilibrium dissociation constant (KD) from the kinetic rate constants (KD=koff/kₒₙ). The data was fit to a 1:1 steady state affinity model using Biacore 8K Evaluation Software to determine a steady state equilibrium dissociation constant (SS KD) as needed.

Binder | Activation ratio (WT/KO) [1] | Protein binding (%) [2] | Protein binding (%) [3] | Kd [4]
4F11 CD70-specific CAR (other, Chimeric antigen receptor on transduced Jurkat cells; the signal peptide is left out) QVTLKESGPVLVKPTETLTLTCTVSGFSLSNARMGVTWIRQPPGKALEWLAHIFSNDEKSYSTSLKSRLTISKDTSKTQVVLTMTNMDPVDTATYYCARIRDYYDISSYYDYWGQGTLVSVSSGGGGSGGGGSGGGGSGGGGSDIQMTQSPSAMSASVGDRVTITCRASQDISNYLAWFQQKPGKVPKRLIYAASSLQSGVPSRFSGSGSGTEFTLTISSLLPEDFATYYCLQLNSFPFTFGGGTKVEINTTTPAPRPPTPAPTIASQPLSLRPEACRPAAGGAVHTRGLDFACDIYIWAPLAGTCGVLLLSLVITLYCKRGRKKLLYIFKQPFMRPVQTTQEEDGCSCRFPEEEEGGCELRVKFSRSADAPAYQQGQNQLYNELNLGRREEYDVLDKRRGRDPEMGGKPRRKNPQEGLYNELQKDKMAEAYSEIGMKGERRRGKGHDGLYQGLSTATKDTYDALHMQALPPR | 11.9 | 47.1% |  | 
P02B10 anti-CD70 scFv-Fc fusion (Fc fusion, scFv-Fc expressed in Expi293; not shown: part of the hinge and Fc from a modified human IgG2) EVQLLESGGGLVQPGGSLRLSCAASGFAFSNYAMSWVRQAPGKGLEWVSAIRGGGGSTYYADSVKGRFTISRDNSKNTLYLQMNSLRAEDTAVYYCARDFISGTWYPDYWGQGTLVTVSSGGGGSGGGGSGGGGSGGGGSELQSVLTQPPSASGTPGQRVTISCSGSSSNIGSNYVYWYQQLPGTAPKLLIYRNNQRPSGVPDRFSGSKSGTSASLAISGLRSEDEADYYCAAWDDSLSGVVFGGGTKLTVL |  |  |  | 355 nM
42C3 CD70-specific CAR (other) EVQLVESGGGLVQPGGSLRLSCAASGFTFRNSWMSWVRQAPGKGLEWVANIKRDGSEKYYVDSVKGRFTISRDNAKNSLYLQMNSLRAEDTAVYYCARDQTGSFDYWGQGTLVTVSSGGGGSGGGGSGGGGSGGGGSDVVMTQSPLSLPVTLGQPASISCRSSQSLVYSDENTYLNWFQQRPGQSLRRLIYQVSNRDSGVPDRFSGSGSGTDFTLKISRVEAEDVGVYFCMQGTYWPPTFGGGTKVEIKTTTPAPRPPTPAPTIASQPLSLRPEACRPAAGGAVHTRGLDFACDIYIWAPLAGTCGVLLLSLVITLYCKRGRKKLLYIFKQPFMRPVQTTQEEDGCSCRFPEEEEGGCELRVKFSRSADAPAYQQGQNQLYNELNLGRREEYDVLDKRRGRDPEMGGKPRRKNPQEGLYNELQKDKMAEAYSEIGMKGERRRGKGHDGLYQGLSTATKDTYDALHMQALPPR | 5.25 |  | 1.48% | 
P08A02 anti-CD70 scFv-Fc fusion (Fc fusion, scFv-Fc expressed in Expi293; not shown: part of the hinge and Fc from a modified human IgG2) EVQLVQSGAEVKKPGESLKISCKGSGYTFTNYWIAWVRQMPGKGLEWMGIIYPDGSDTRYSPSFQGQVTISADKSISTAYLQWSSLKASDTAMYYCARDITSWYYGEPAFDIWGQGTLVTVSSGGGGSGGGGSGGGGSGGGGSELQSVLTQPPSASGTPGQRVTISCSGSSSNIGSNYVYWYQQLPGTAPKLLIYRNNQRPSGVPDRFSGSKSGTSASLAISGLRSEDEADYYCATWDDSLGSPVFGTGTKLTVL |  |  |  | 1200 nM
P07D03 anti-CD70 scFv-Fc fusion (Fc fusion, scFv-Fc expressed in Expi293; not shown: part of the hinge and Fc from a modified human IgG2) EVQLVQSGAEVKKPGESLKISCKGSGYRFTSYWIGWVRQMPGKGLEWMGSIYPDDSDTRYSPSFQGQVTISADKSISTAYLQWSSLKASDTAMYYCASSTVDYPGYSYFDYWGQGTLVTVSSGGGGSGGGGSGGGGSGGGGSELQSVLTQPPSASGTPGQRVTISCSGSRSNIGSNYVYWYQQLPGTAPKLLIYRNNQRPSGVPDRFSGSKSGTSASLAISGLRSEDEADYYCASWDGSLSAVVFGTGTKLTVL |  |  |  | 1070 nM

Second part, the binder after the results:

Activation ratio (WT/KO) [1] | Protein binding (%) [2] | Protein binding (%) [3] | Kd [4] | Binder
6.18 |  | 0.09% |  | 72C2 CD70-specific CAR (other) QVQLVQSGAEVKKPGSSVKVSCEASGGTFITYAISWVRQAPGQGLEWMGGIIPFFGTANYAQKFQGRVTITADKSTSTASMELRSLRSEDTAMYYCAQWELFFFDFWGQGTPVTVSSGGGGSGGGGSGGGGSGGGGSEIVMTQSPDTLSVSPGERAILSCRASQSVSSNLAWYQQKPGQAPRLLIYSASTRASGIPARFSGSGSGTEFTLSISSLQSEDFAVYYCQQYDNWPPLTFGGGTKVEIKTTTPAPRPPTPAPTIASQPLSLRPEACRPAAGGAVHTRGLDFACDIYIWAPLAGTCGVLLLSLVITLYCKRGRKKLLYIFKQPFMRPVQTTQEEDGCSCRFPEEEEGGCELRVKFSRSADAPAYQQGQNQLYNELNLGRREEYDVLDKRRGRDPEMGGKPRRKNPQEGLYNELQKDKMAEAYSEIGMKGERRRGKGHDGLYQGLSTATKDTYDALHMQALPPR
6.67 |  | 1.29% |  | 45F11 CD70-specific CAR (other) QVQLRGSGPGLVKPSETLSLTCTVSDDSISVYYWSWIRQPAGKGLEWIGRVYSSGNINYNPSLESRVTMSVDTSKSRFSLNLSSVTAADTAVYYCARGLDAFDIWGQGTMVTVSSGGGGSGGGGSGGGGSGGGGSEIVMTQSPATLSMSLGERATLSCRASQSVSSSLAWYQQKPGQAPRLLIYGASTRATGIPARFGGSGSGTEFTLTISSLQSEDFAVYYCQQYINWPHFGGGTKVEIKTTTPAPRPPTPAPTIASQPLSLRPEACRPAAGGAVHTRGLDFACDIYIWAPLAGTCGVLLLSLVITLYCKRGRKKLLYIFKQPFMRPVQTTQEEDGCSCRFPEEEEGGCELRVKFSRSADAPAYQQGQNQLYNELNLGRREEYDVLDKRRGRDPEMGGKPRRKNPQEGLYNELQKDKMAEAYSEIGMKGERRRGKGHDGLYQGLSTATKDTYDALHMQALPPR
